Test results from US20100099079.

Tested on: 5-FAM/QXL 520 NS3 FRET substrate

Recombinant HCV NS3/4A protease
NS3 FRET activity (5-FAM dequenching): FRET signal increased with increasing amounts of purified NS3, revealing a linear correlation (R^2=0.999) between NS3 protein levels and FRET activity
